The supplement of paper PMC9233669
Variants at the floor of the assay were thinned out.

How the values were obtained:
biotinyl-Leu-oxazolone = test: self-aminoacylation, catalytic enhancement (BLO) (fold over background); higher = more active; k-Seq, kA / k0A0; sequences stand for … in GGGAAUGGAUCCACAUCUACGAAUUC…UUCACUGCAGACUUGACGAAGCUG
Method in brief: (§1)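 Catalytic enhancement equals the median kA over the uncatalyzed rate, the latter read from the low-activity peak of a bimodal Gaussian fit. Values of kA came from fitting each sequence's fraction reacted to a pseudo-first-order model, with 1000 bootstraps. Reacted RNA was captured with streptavidin and quantified by triplicate qPCR and Illumina sequencing after 90 minutes at room temperature with 2–1250 μM biotinyl-aminoacyl-oxazolone and 0.43 μM mutagenized RNA pools bearing a 21-nt variable region.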

biotinyl-Val-oxazolone = test: self-aminoacylation, catalytic enhancement (BVO) (fold over background); higher = more active; k-Seq, kA / k0A0; sequences stand for … in GGGAAUGGAUCCACAUCUACGAAUUC…UUCACUGCAGACUUGACGAAGCUG
Method in brief: as §1

biotinyl-Met-oxazolone = test: self-aminoacylation, catalytic enhancement (BMO) (fold over background); higher = more active; k-Seq, kA / k0A0; sequences stand for … in GGGAAUGGAUCCACAUCUACGAAUUC…UUCACUGCAGACUUGACGAAGCUG
Method in brief: as §1

biotinyl-Trp-oxazolone = test: self-aminoacylation, catalytic enhancement (BWO) (fold over background); higher = more active; k-Seq, kA / k0A0; sequences stand for … in GGGAAUGGAUCCACAUCUACGAAUUC…UUCACUGCAGACUUGACGAAGCUG
Method in brief: as §1

biotinyl-Ile-oxazolone = test: self-aminoacylation, catalytic enhancement (BIO) (fold over background); higher = more active; k-Seq, kA / k0A0; sequences stand for … in GGGAAUGGAUCCACAUCUACGAAUUC…UUCACUGCAGACUUGACGAAGCUG
Method in brief: as §1

biotinyl-Phe-oxazolone = test: self-aminoacylation, catalytic enhancement (BFO) (fold over background); higher = more active; k-Seq, kA / k0A0; sequences stand for … in GGGAAUGGAUCCACAUCUACGAAUUC…UUCACUGCAGACUUGACGAAGCUG
Method in brief: as §1

Sequence	self-aminoacylation (biotinyl-Leu-oxazolone)	self-aminoacylation (biotinyl-Val-oxazolone)	self-aminoacylation (biotinyl-Met-oxazolone)	self-aminoacylation (biotinyl-Trp-oxazolone)	self-aminoacylation (biotinyl-Ile-oxazolone)	self-aminoacylation (biotinyl-Phe-oxazolone)
CCAUACUUCAAGCAAUCGAUC [Fam1B.1 aminoacylation ribozyme variant]	0.489	0.842	0.45	0.638	0.666	1.01
AUUCACCUAGAUCAUCCGGUG [Fam2.2 aminoacylation ribozyme variant]	3.97	3.32	3.41	2.83	3.4	17.8
AAGUUUUCUAAGAGUCGCAAG [Fam3.1 aminoacylation ribozyme variant]	1.62	1.62	1.32	1.51	1.65	3.16
CUAUUUAAAACAAUCGGUCUG [Fam1A.1 aminoacylation ribozyme variant]	0.774	0.841	0.927	0.616	0.834	0.598
ACUCACCUAGGUCAUCGGGUA [Fam2.2 aminoacylation ribozyme variant]	27	10.1	19.9	14.9	11.4	157
AUUACCAUGGUCAUCGCGUGA [Fam2.1 aminoacylation ribozyme variant]	25.2	12.1	24.6	26.7	10.3	189
CUAAUUCAAACAAUCGGUCCG [Fam1A.1 aminoacylation ribozyme variant]	0.732	0.539	0.575	0.513	0.553	0.604
CCACACUUCAAGCAAUAGUUC [Fam1B.1 aminoacylation ribozyme variant]	0.55	0.644	0.501	0.431	0.703	1.21
ACAGACUUCAAGCAAUCGGUC [Fam1B.1 aminoacylation ribozyme variant]	3.24	2.27	2.39	38.2	2.39	68.1
AUUACCCUGGUUAUCGUGUGA [Fam2.1 aminoacylation ribozyme variant]	2.3	1.49	2.4	2.76	1.27	15
ACUACCCUAGUCAUCGAGUGA [Fam2.1 aminoacylation ribozyme variant]	5.39	2.64	4.62	5.01	2.95	8.71
CCACACUUCAGGCAGUCGGUC [Fam1B.1 aminoacylation ribozyme variant]	1.62	1.48	1.04	1.32	1.48	0.789
CCUCACUUCAAGCAACCGGUC [Fam1B.1 aminoacylation ribozyme variant]	0.806	0.834	0.857	1.29	0.978	1.67
AUUAACCUGGUCAUCGAGUGG [Fam2.1 aminoacylation ribozyme variant]	2.11	1.2	1.63	2.03	1.25	2.19
AAUACCCUGGUCAUCGAAUGA [Fam2.1 aminoacylation ribozyme variant]	0.724	0.781	0.76	1.17	0.855	0.529
CGACACUUCAAGCAAUCGGGC [Fam1B.1 aminoacylation ribozyme variant]	1.85	2.43	1.36	2.12	1.91	8.3
AUUACCCUGGUCAUCAACUGA [Fam2.1 aminoacylation ribozyme variant]	0.851	1.13	0.667	0.571	0.789	0.556
CUACUACAAACAACCGGUCUG [Fam1A.1 aminoacylation ribozyme variant]	0.845	1.14	0.601	0.954	1.19	1.12
CUUCAACUAGGUCAUCGGGUG [Fam2.2 aminoacylation ribozyme variant]	6.16	3.22	5.42	4.93	3.17	31.8
AUUACCCUGGUCAUUGAGUGA [Fam2.1 aminoacylation ribozyme variant]	8.58	4.49	9.01	10.8	4.27	44.1
AUUACUCUGGUCAUCGAGUGU [Fam2.1 aminoacylation ribozyme variant]	4.37	2.57	4.24	3.92	2.52	4.35
CUACUUCAAACUAUCGAUCUG [Fam1A.1 aminoacylation ribozyme variant]	0.596	0.728	0.57	0.369	0.736	0.945
AUUGCCCUGGUCAUCGAGUAA [Fam2.1 aminoacylation ribozyme variant]	8.75	4.02	8.54	8.07	3.56	28.4
CUACUUCAACCAAGCGGUCUG [Fam1A.1 aminoacylation ribozyme variant]	0.942	0.954	0.907	0.8	1.02	0.739
AUUACCGUGGUCAUCGAGUGC [Fam2.1 aminoacylation ribozyme variant]	1.08	1.05	0.762	1	0.895	2.57
